Data from paper PMC9542197 (Chembiochem, 2022).
Values belong to the molecule of their own block, whether it stands above or below them.

Assays:
[1] = target: T1, TmMtaD (SAH deaminase from Thermotoga maritima) (Thermotoga maritima, UniProt Q9X034); assay: GDH-coupled NADH oxidation at […] nm; type: biochemical; conditions: 50 mM potassium phosphate pH 7.5, 50 mM KCl, 20 mM MgCl2
T1 sequence (Q9X034 1-406): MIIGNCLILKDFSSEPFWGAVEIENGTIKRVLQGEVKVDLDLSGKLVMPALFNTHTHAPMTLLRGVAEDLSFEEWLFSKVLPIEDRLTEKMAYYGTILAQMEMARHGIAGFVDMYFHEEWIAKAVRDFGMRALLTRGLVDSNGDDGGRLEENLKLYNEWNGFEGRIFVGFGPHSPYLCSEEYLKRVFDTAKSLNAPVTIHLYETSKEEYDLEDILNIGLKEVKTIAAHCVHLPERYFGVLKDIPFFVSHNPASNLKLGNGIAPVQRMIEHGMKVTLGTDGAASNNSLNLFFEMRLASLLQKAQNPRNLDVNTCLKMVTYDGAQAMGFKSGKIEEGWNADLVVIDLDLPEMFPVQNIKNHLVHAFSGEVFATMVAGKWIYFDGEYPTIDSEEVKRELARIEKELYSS

NCCc1ccc(O)c(O)c1 = assay: purified protein; conditions: 200 μM SAM, 50 mM HEPES pH 7.5, 100 mM KCl, 20 mM MgCl2, 25 °C
purified protein = substrate: NCCc1ccc(O)c(O)c1; assay: purified protein; type: biochemical, Rattus norvegicus; conditions: 200 μM SAM, 50 mM HEPES pH 7.5, 100 mM KCl, 20 mM MgCl2, 25 °C

Km [1]: 180 ± 60 µM
Molecule: Nc1ncnc2c1ncn2[C@@H]1O[C@H](CSCC[C@H](N)C(=O)O)[C@@H](O)[C@H]1O [SAH]

Molecule: MxSafC (SafC O-MT from Myxococcus xanthus) (Myxococcus xanthus)
Km (NCCc1ccc(O)c(O)c1): 270 ± 14 µM | kcat (NCCc1ccc(O)c(O)c1): 0.039 ± 0.001 s⁻¹

B1: RnCOMT (catechol-O-MT from Rattus norvegicus) (Rattus norvegicus) (protein)
chain: MGDTKEQRILRYVQQNAKPGDPQSVLEAIDTYCTQKEWAMNVGDAKGQIMDAVIREYSPSLVLELGAYCGYSAVRMARLLQPGARLLTMEMNPDYAAITQQMLNFAGLQDKVTILNGASQDLIPQLKKKYDVDTLDMVFLDHWKDRYLPDTLLLEKCGLLRKGTVLLADNVIVPGTPDFLAYVRGSSSFECTHYSSYLEYMKVVDGLEKAIYQGPSSPDKS
Km (purified protein): 144 ± 15 µM | kcat (purified protein): 0.072 ± 0.002 s⁻¹
